{"source": "paper PMC5667739", "biological_target": "GII.10 P domain (Vietnam026) (norovirus GII.10 (Vietnam026))", "assay": "crystal structure", "data": [{"substance": "GII.10 P domain (Vietnam026) (domain or fragment)", "values": [{"measurement": "stoichiometry N", "result": 2}]}]}
